The source of these data is US20230296569A1, “Substance quantification in complex mixtures” (ISA Pharmaceuticals B.V., priority 2021, published 2023).

The nature of data set [1]: Peptide content (assay) of lyophilized drug product by UPLC-UV at 220 nm, method according to the invention (USP reserpine reference standard, RRF). The format is physicochemical. The note with it: method according to the invention (USP RS). An excerpt: The UPLC method similar to Example 1 was used for the quantification of analytes (i.e. the individual peptides) in mixtures DP-5P (SEQ ID NO: 1-5) and DP-7P (SEQ ID NO: 6-12) and for the determination of content uniformity of mixtures DP-5P and DP-7P (lyophilized product). The method is based on the use of an external reference standard. The relative response factor (ratio of molar extinction coefficients, RRF) against this external reference standard has been established for each peptide. The purity, individual related substances, and the assay of DP-5P and DP-7P were determined by reversed phase rapid HPLC (UPLC) using a mobile phase gradient of ACN/IPA and water and UV detection at λ220 nm.
The following lyophilized peptide compositions were used: DP-5P comprising peptides represented herein by SEQ ID NO: 1-5 admixed at equal net weights of 0.40 mg of each peptide per vial (total amount of protein per vial being 2.00 mg) and 0.56 mg TFA per vial; and DP-7P comprising peptides represented herein by SEQ ID NO: 6-12 admixed at equal net weights of 0.40 mg of each peptide per vial (total amount of protein per vial being 2.80 mg) and 0.96 mg TFA per vial. The following chemicals were used: Acetonitrile, (Biosolve, 01204102); UPLC water, (Type 1, milli-Q); trifluoroacetic acid, (Chem Lab, CLoo.2094.0001), 2-propanol, (UPLC/MS grade, Biosolve, 16264102); Reserpine, (USP, Sigma Aldrich, 1601000). The following equipment was used: QuanRecovery vials, (Waters, 186009186); UPLC pump equipped with a gradient system, autosampler, and UV detection (Waters Acquity or equivalent) and mixer volume 425 μL.
• Mobile phase A: 0.1% (v/v) TFA in water • Mobile phase B: 0.1% (v/v) TFA in 70/30 ACN/IPA • Diluent A: 0.05% (v/v) TFA in water • Diluent B: 0.05% (v/v) TFA in ACN • Blank solution: 80/20 (v/v) diluent A/diluent B • Purge solvent: 80/20 (v/v) water/ACN • Needle wash: 0.05% (v/v) TFA in 80/20 (v/v) water/ACN
5.00 mg Reserpine reference material was accurately weighed and added into a 50 mL volumetric flask. 40.0 mL of blank solution was added, by means of a volumetric pipette. The solution was stirred for 10 min, by means of a magnetic stirrer, until fully dissolved. The solution was diluted to volume with blank solution and mixed well.
Transfer of 2.0 mL, by means of a volumetric pipette, of stock reference solution 1 into a 20 mL volumetric flask. Diluted to volume with blank solution and homogenized.
This sample preparation was setup for lyophilized products DP-5P and DP-7P in an initially sealed container. Before opening and dissolving the drug product, the vials were equilibrated at room temperature for at least 1 hour. The content of the vial was dissolved with 0.8 mL of diluent B, and stirred for 20 min, using a magnetic stirrer. 3.2 mL of diluent A were added. The solution was stirred well for 20 min, using a magnetic stirrer. After dissolving the content of the vial, the sample vial was kept on the lab bench for 30 minutes. The solution was stirred briefly and transferred into an HPLC vial.
• Column: Advance Bio Peptide Map (2.7 μm, 250 x 2.1 mm) • Sample matrix 0.05%v/v TFA in ACN : water (1:4 v/v) • Sample concentration 100 μg/mL net peptide (of each drug substance), duplicate • Injection volume: 10 μL • Column temperature: 40° C. • Sample temperature: 5° C. • Detection: UV (λ=220 nm) • Flow rate: 0.2 mL/min • Run time: 65 min • Purge solvent: 80/20 (v/v) water/ACN • Needle wash: 0.05% (v/v) TFA in 80/20 water/ACN (v/v) (20 s) • Seal wash: 90/10 (v/v) water/MeOH • Elution mode: Gradient elution • Eluent A: 0.1%v/v TFA in water • Eluent B: 0.1%v/v TFA in ACN/IPA (70:30 v/v)
The RRF was determined for all 12 peptides, enabling the quantification of each peptide against a reserpine as shown above. For the determination, the absorbance of each peptide in a solution comprising said peptide at a known concentration, and of a reference standard solution comprising reserpine at a known concentration, were measured at 220 nm. […]

Data set [2] in a line: Peptide content (assay) of lyophilized drug product by UPLC-UV at 220 nm, conventional method (peptide as reference standard). The format is physicochemical. The note with it: conventional method (peptide as RS). The protocol:
The purity including individual related substances and the assay of a DP-5P (5 peptides, SEQ ID NOs: 1-5) and DP-7P (7 peptides, SEQ ID NOs: 6-12) mixture were determined by reversed phase rapid HPLC (UPLC) using a mobile phase gradient of acetonitrile and water and UV detection at λ=220 nm.
• Column: RP C18, e.g. Waters Acquity, BEH 130 PST (1.7 μm, 150×2.1 mm) • Sample matrix Eluent A : Eluent B=85:15 (v/v). • Sample concentration 100 μg/mL net peptide (of each drug substance mixture), duplicate • Injection volume: 5 μL • Column temperature: 65° C. • Sample temperature: 5° C. • Detection: UV (λ=220 nm) • Flow rate: 0.3 mL/min • Eluent A: 0.05%v/v TFA and 1%v/v Acetonitrile (ACN) in water • Eluent B: 0.05%v/v TFA in ACN
The relative retention times (RRTs) assigned to peptides and related substances both in a DP-5P (SEQ ID NO: 1-5) and DP-7P (SEQ ID NO: 6-12) mixture was calculated with reference to the retention time of the peptide eluting in the middle (FIG. 1 and FIG. 2). That retention time was used as reference as the main peak of this drug substance was detected approx. in the center of the chromatogram. The related substances were determined by area normalization. The individual related substances were reported≥0.10%a/a. The total related substances were calculated as the sum of all individual related substances equal to or greater than a disregard limit of 0.0500%a/a. The purity was calculated as the difference between total related substances and 100%.
The assay of each of the peptides was calculated against a reference standard solution containing either five peptides (DP-5P) or seven peptides (DP-7P) and was expressed in percent and in mg net peptide/vial. For this reference method, the absorption ratio between the reference substance and the analyte is 1, because the reference substance is the analyte itself.
At T=0 months (TOM) the peptide content was measured using the conventional method of Example 2. From T=48 months (T48M) onwards the peptide content was measured with the conventional method of Example 2 and the method according to the invention of Example 3.

“MHQKRTAMFQ QERPRKLPQLCTELQTTIHD (MHQKRTAMFQQERPRKLPQLCTELQTTIHD; Peptide 10)”: the “Assay (mg/vial)” value amounted to 0.4060 mg/vial in data set [1] (DP-7P batch, T48M); 0.3966 mg/vial in data set [1] (DP-7P batch, T54M); 0.3945 mg/vial in data set [1] (DP-7P batch, T60M); 0.4212 mg/vial in data set [2] (DP-7P batch, T0M); 0.4329 mg/vial in data set [2] (DP-7P batch, T48M); 0.4271 mg/vial in data set [2] (DP-7P batch, T54M). In data set [2] (DP-7P batch, T60M), the “Assay (mg/vial)” value is 0.4362 mg/vial. The “Label claim (% target 0.40 mg/vial)” value in data set [1] (DP-7P batch, T48M) was determined as 101%; in data set [1] (DP-7P batch, T54M) it was 99%; in data set [1] (DP-7P batch, T60M) it was 99%; in data set [2] (DP-7P batch, T0M) it was 105%; in data set [2] (DP-7P batch, T48M), 108%; in data set [2] (DP-7P batch, T54M) it was 107%. In addition, the “Label claim (% target 0.40 mg/vial)” value in data set [2] (DP-7P batch, T60M) worked out at 109%.

Consider DKCLKFYSKISEYRHYCYSLYGTTL (Peptide 1), for which the “Assay (mg/vial)” value in data set [1] (DP-5P batch, T48M) amounted to 0.3910 mg/vial; in data set [1] (DP-5P batch, T54M), 0.3932 mg/vial; in data set [1] (DP-5P batch, T60M), 0.3701 mg/vial; in data set [2] (DP-5P batch, T0M), 0.4047 mg/vial; in data set [2] (DP-5P batch, T48M), 0.4107 mg/vial; in data set [2] (DP-5P batch, T54M), 0.4088 mg/vial. In addition, in data set [2] (DP-5P batch, T60M), the “Assay (mg/vial)” value came out at 0.4082 mg/vial. Besides, the “Label claim (% target 0.40 mg/vial)” value stood at 98% in data set [1] (DP-5P batch, T48M); 98% in data set [1] (DP-5P batch, T54M); 93% in data set [1] (DP-5P batch, T60M); 101% in data set [2] (DP-5P batch, T0M); 103% in data set [2] (DP-5P batch, T48M); 102% in data set [2] (DP-5P batch, T54M). In addition, the “Label claim (% target 0.40 mg/vial)” value in data set [2] (DP-5P batch, T60M) was determined as 102%.

Regarding KQQLLRREVYDFAFRDLCIVYRDGN (Peptide 8), the “Assay (mg/vial)” value in data set [1] (DP-7P batch, T48M) was 0.3980 mg/vial; in data set [1] (DP-7P batch, T54M), 0.3928 mg/vial; in data set [1] (DP-7P batch, T60M) it was 0.3900 mg/vial; in data set [2] (DP-7P batch, T0M) it was 0.4357 mg/vial; in data set [2] (DP-7P batch, T48M), 0.4323 mg/vial; in data set [2] (DP-7P batch, T54M) it was 0.4289 mg/vial. Further, the “Assay (mg/vial)” value in data set [2] (DP-7P batch, T60M) came out at 0.4294 mg/vial. Further, the “Label claim (% target 0.40 mg/vial)” value in data set [1] (DP-7P batch, T48M) is 99%; in data set [1] (DP-7P batch, T54M), 98%; in data set [1] (DP-7P batch, T60M), 98%; in data set [2] (DP-7P batch, T0M), 109%; in data set [2] (DP-7P batch, T48M) it was 108%; in data set [2] (DP-7P batch, T54M), 107%. Further, the “Label claim (% target 0.40 mg/vial)” value in data set [2] (DP-7P batch, T60M) worked out at 107%.

As for “YGTTLEQQYNKPLCDLLIRCINCQKPLCPEEK (Peptide 12)”, the “Assay (mg/vial)” value was 0.4132 mg/vial in data set [1] (DP-7P batch, T48M); 0.4034 mg/vial in data set [1] (DP-7P batch, T54M); 0.4010 mg/vial in data set [1] (DP-7P batch, T60M); 0.4261 mg/vial in data set [2] (DP-7P batch, T0M); 0.4323 mg/vial in data set [2] (DP-7P batch, T48M); 0.4215 mg/vial in data set [2] (DP-7P batch, T54M). In data set [2] (DP-7P batch, T60M), the “Assay (mg/vial)” value was determined as 0.4219 mg/vial. The “Label claim (% target 0.40 mg/vial)” value in data set [1] (DP-7P batch, T48M) came out at 103%; in data set [1] (DP-7P batch, T54M), 101%; in data set [1] (DP-7P batch, T60M) it was 100%; in data set [2] (DP-7P batch, T0M) it was 107%; in data set [2] (DP-7P batch, T48M) it was 108%; in data set [2] (DP-7P batch, T54M), 105%. The “Label claim (% target 0.40 mg/vial)” value in data set [2] (DP-7P batch, T60M) came to 105%.

As for “MHGDTPTLHEYMLDLQPETTDLYCYEQLNDSSEEE [Peptide 3]”, the “Assay (mg/vial)” value in data set [1] (DP-5P batch, T48M) came out at 0.3798 mg/vial; in data set [1] (DP-5P batch, T54M) it was 0.3789 mg/vial; in data set [1] (DP-5P batch, T60M), 0.3883 mg/vial; in data set [2] (DP-5P batch, T0M), 0.3942 mg/vial; in data set [2] (DP-5P batch, T48M), 0.4311 mg/vial; in data set [2] (DP-5P batch, T54M) it was 0.4194 mg/vial. Also, in data set [2] (DP-5P batch, T60M), the “Assay (mg/vial)” value was 0.4170 mg/vial. For the same sequence, the “Label claim (% target 0.40 mg/vial)” value in data set [1] (DP-5P batch, T48M) is on record as 95%; in data set [1] (DP-5P batch, T54M), 95%; in data set [1] (DP-5P batch, T60M) it was 97%; in data set [2] (DP-5P batch, T0M), 99%; in data set [2] (DP-5P batch, T48M) it was 108%; in data set [2] (DP-5P batch, T54M), 105%. The “Label claim (% target 0.40 mg/vial)” value in data set [2] (DP-5P batch, T60M) worked out at 104%.

On to “RCINCQKPLCPEEKQRHLDKKQRFHNIRGRWT (Peptide 4)”, for which the “Assay (mg/vial)” value amounted to 0.3820 mg/vial in data set [1] (DP-5P batch, T48M); 0.3966 mg/vial in data set [1] (DP-5P batch, T54M); 0.3842 mg/vial in data set [1] (DP-5P batch, T60M); 0.3936 mg/vial in data set [2] (DP-5P batch, T0M); 0.3937 mg/vial in data set [2] (DP-5P batch, T48M); 0.3911 mg/vial in data set [2] (DP-5P batch, T54M). The “Assay (mg/vial)” value in data set [2] (DP-5P batch, T60M) is on record as 0.3913 mg/vial. Moreover, the “Label claim (% target 0.40 mg/vial)” value in data set [1] (DP-5P batch, T48M) was 96%; in data set [1] (DP-5P batch, T54M), 99%; in data set [1] (DP-5P batch, T60M), 96%; in data set [2] (DP-5P batch, T0M) it was 98%; in data set [2] (DP-5P batch, T48M) it was 98%; in data set [2] (DP-5P batch, T54M) it was 98%. Further, the “Label claim (% target 0.40 mg/vial)” value in data set [2] (DP-5P batch, T60M) is recorded as 98%.
